{"source": "patent US20140031234A1", "about": "(published 2014)", "proteins": {"B1": {"name": "Strep-tagged Δ513 of NPR1 (other)", "chain": "AVLDQIMNCEDLTQLACGEDDTAEKRLQKKQRYMEIQETLKKAFSEDNLELGNSSLTDSTSSTSKSTGGKRSNRKLSHRRR", "notes": "E. coli-produced; used in S100 gel filtration; not shown: N-terminal Strep-Tag (and any vector linker)"}}, "target": "the molecule itself", "experiment": "Sephacryl S100 gel filtration; self-association"}
{"protein": "B1", "values": [{"measurement": "binding result", "value": "binds"}]}
